According to patent US20210085785A1 (TRUEBINDING, published 2021):
Residue numbers refer to the chain shown, from its start. Values belong to the binder of their own block, whether it stands above or below them.

Columns and labels:
[1] = biological target: T1, Purified human LRIG1 extracellular domain fused to a HIS tag (R&D Systems) (human) (UniProt Q96JA1); assay: biosensor binning; saturating mab5 20 ug/mL, competitor mab2 5 ug/mL
T1 sequence: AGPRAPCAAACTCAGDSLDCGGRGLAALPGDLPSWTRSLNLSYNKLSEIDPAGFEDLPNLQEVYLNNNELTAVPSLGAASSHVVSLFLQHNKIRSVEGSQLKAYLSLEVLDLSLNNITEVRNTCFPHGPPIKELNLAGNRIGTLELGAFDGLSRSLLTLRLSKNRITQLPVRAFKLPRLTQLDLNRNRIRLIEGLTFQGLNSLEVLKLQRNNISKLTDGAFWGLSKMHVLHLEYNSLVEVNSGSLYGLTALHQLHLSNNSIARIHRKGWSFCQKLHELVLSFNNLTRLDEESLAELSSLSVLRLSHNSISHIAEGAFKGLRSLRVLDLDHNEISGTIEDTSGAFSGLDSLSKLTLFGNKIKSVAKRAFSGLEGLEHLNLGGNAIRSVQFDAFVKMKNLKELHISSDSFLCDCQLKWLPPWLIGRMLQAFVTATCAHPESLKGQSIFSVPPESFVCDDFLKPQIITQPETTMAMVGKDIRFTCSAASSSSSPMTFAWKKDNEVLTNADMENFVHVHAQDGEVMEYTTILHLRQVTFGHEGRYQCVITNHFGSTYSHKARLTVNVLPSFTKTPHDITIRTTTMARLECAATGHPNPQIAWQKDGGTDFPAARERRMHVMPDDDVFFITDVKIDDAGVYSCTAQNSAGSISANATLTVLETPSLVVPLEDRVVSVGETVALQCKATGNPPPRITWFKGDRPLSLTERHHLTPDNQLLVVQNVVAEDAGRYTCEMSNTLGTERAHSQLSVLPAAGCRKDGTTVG

[2] = biological target: T1, Purified human LRIG1 extracellular domain fused to a HIS tag (R&D Systems) (human); assay: biosensor binning; saturating mab5 20 ug/mL, competitor mab4 5 ug/mL
[3] = biological target: T1, Purified human LRIG1 extracellular domain fused to a HIS tag (R&D Systems) (human); assay: biosensor binning; saturating mab5 20 ug/mL, competitor mab5 5 ug/mL
[4] = biological target: T1, Purified human LRIG1 extracellular domain fused to a HIS tag (R&D Systems) (human); assay: biosensor binning; saturating mab5 20 ug/mL, competitor mab6 5 ug/mL
[5] = biological target: T1, Purified human LRIG1 extracellular domain fused to a HIS tag (R&D Systems) (human); assay: blocking ELISA: LRIG1 ECD-His coated, antibody 3.3 ug/ml, oligomerized VISTA 50 nM, avidin-HRP
[6] = biological target: T2, Purified human LRIG1 extracellular domain fused to a HIS tag (R&D Systems) (human, UniProt Q96JA1 35-794); assay: as above
T2 construct: also called human LRIG1-His; hLRIG1-His; not shown: HIS tag
T2 sequence: T1 sequence
Experimental: To identify LRIG1-targeted antibodies with the ability to block the interaction of LRIG1 and VISTA, purified LRIG1 and VISTA proteins were incubated in the presence of various LRIG1-targeted or control antibodies, or without antibody, and protein interaction was evaluated by ELISA. Purified human LRIG1 extracellular domain fused to a HIS tag (R&D Systems) was diluted in phosphate buffered saline (PBS) (Corning) to a concentration of 3 μg/ml and 100 ul was added to each well of a 96-well ELISA plate (Thermo Fisher, 44-2404-21). After incubating the plate at 4° C. overnight, the plate was washed three times with 300 μl of PBS with 0.05% TWEEN (VWR) (PBST) per well. The plate was then blocked for an hour with 200 μl of 2% bovine serum albumin (BSA) (Sigma) in PBST per well at room temperature with gentle rocking. Thereafter, the 2% BSA in PBST was removed and 50 ul of antibody at 3.3 ug/ml in 2% BSA in PBST was added to the wells. The plate was incubated for 10 minutes at room temperature with gentle rocking. Afterwards, 50 nM of oligomerized VISTA in 100 ul PBS buffer was added per well. […] The plate was read using a plate reader (Molecular Devices) at absorbance of 450 nm. Percent blockade of LRIG1-VISTA interaction was calculated as the fraction of signal obtained in each experimental samples of the no antibody sample less background signal.

- competition matrix entry (not explained) [1]: 0
- competition matrix entry (not explained) [2]: 0
- competition matrix entry (not explained) [3]: 0
- competition matrix entry (not explained) [4]: 0
- percent of LRIG1-VISTA binding relative to an unblocked sample [5]: 60%
B1: mab5 (antibody, V domains shown)
VH: QVQLVQSGAEVKKPGASVKVSCKASGYTFTSYYLHWVRQAPGQRLEWMGWIYPGNVNTKYNQKFQGRVTITADKSASTAYMELSSLRSEDTAVYFCAREELGGFAYWGQGTLVTVSS
VL: DIQMTQSPSSLSASVGNRVTITCRASQDISNYLSWYQQKPGKVPKLLIYYTSILHSGVPSRFSGSGSGTDYSLTISSLQPEDVATYFCQQGNTLPRTFGQGTKVEIK

- percent of LRIG1-VISTA binding relative to an unblocked sample [6]: 44%
B2: mab4 (IMT300) (antibody, V domains shown)
VH: B1 VH
VL: B1 VL with L11V, V15I, N17D, V43A, S72T, V83F, Q100G
notes: also called hLRIG1 mAb IMT300; Immutics PP14384

- percent of LRIG1-VISTA binding relative to an unblocked sample [6]: 43%
B3: mab6 (antibody, V domains shown)
VH: B1 VH with M48I, Q62E, I70L
VL: B1 VL with L11V, V15I, N17D, V43A, S72T, V83F, Q100G
notes: also called Immutics PP14387
